Results from US12202907B2, “Nucleic acids encoding and methods of producing proteins comprising antibody chains” (Innate Pharma, priority 2018, dated 2025).

Key:
CD39 = molecular target: T1, CD39 (Homo sapiens, UniProt P49961); assay: ELISA titration on huCD39 (vascular isoform); assay type: binding; parameters: made in house
T1 sequence (P49961 1-510): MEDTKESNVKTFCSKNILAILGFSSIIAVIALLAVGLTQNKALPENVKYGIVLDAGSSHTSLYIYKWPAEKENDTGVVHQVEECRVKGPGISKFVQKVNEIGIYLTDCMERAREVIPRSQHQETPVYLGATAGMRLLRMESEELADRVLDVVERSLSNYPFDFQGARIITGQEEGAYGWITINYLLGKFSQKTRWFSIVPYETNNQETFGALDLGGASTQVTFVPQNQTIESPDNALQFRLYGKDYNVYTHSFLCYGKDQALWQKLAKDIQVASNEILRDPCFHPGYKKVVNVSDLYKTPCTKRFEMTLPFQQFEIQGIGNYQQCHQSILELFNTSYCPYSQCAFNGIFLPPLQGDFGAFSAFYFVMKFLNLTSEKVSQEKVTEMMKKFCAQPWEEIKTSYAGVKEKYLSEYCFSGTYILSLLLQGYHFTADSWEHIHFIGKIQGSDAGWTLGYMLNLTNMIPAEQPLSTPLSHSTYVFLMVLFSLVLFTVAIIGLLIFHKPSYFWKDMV
Protocol: (§1) Antibody I-394 was tested for binding to recombinant human CD39 isoforms (Rec-huCD39 isoforms) having amino acid sequences shown below were coated in 96-well plate in PBS 1X at 500 ng/ml or 1 μg/ml at 4° C. overnight. Wells were washed in TBS Tween® 20 (polysorbate 20), and further saturated 2H at RT in TBS Blocking buffer. Dose range concentration of primary antibody was incubated in TBS blocking buffer for 2 h at RT. Wells were washed in TBS Tween® 20 (polysorbate 20). […] Optical density was measured on Enspire™ at OD=450.

[1] = molecular target: T2, CHO cells expressing murine CD39 (Mus musculus, UniProt P55772); assay: Antibody titration on CHO-moCD39 by flow cytometry; assay type: binding; settings: qualitative
T2 construct: expressed in transfected cells; host or cells: CHO
T2 sequence (P55772 1-510): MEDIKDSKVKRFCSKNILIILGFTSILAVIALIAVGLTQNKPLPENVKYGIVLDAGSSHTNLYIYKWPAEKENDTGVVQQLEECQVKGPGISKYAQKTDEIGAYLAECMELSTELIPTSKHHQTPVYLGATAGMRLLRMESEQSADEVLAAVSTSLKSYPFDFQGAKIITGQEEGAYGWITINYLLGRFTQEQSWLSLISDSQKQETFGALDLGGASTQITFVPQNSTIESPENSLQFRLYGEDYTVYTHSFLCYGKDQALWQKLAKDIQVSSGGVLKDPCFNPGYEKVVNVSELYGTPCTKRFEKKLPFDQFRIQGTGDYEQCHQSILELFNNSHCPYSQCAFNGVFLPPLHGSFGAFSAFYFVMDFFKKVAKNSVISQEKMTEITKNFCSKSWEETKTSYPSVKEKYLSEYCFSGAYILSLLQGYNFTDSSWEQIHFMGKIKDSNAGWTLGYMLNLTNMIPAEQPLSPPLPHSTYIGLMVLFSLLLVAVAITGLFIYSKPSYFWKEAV
Protocol: Antibody I-394 was tested in two repeated experiments for binding to CHO cells expressing human CD39, CHO cells expressing cynomolgus (Macaca fascicularis) CD39, CHO cells expressing murine CD39, and human Ramos lymphoma cells (ATCC™, reference CRL-1596). Cells were incubated with various concentration of unlabeled anti-CD39 antibody from 30 μg/ml to 5×10^−4 μg/ml, for 30 minutes at 4° C. After washes, cells were incubated with Goat anti-mouse H+L labeled secondary antibody for 30 min at 4° C.

[2] = molecular target: T3, Human CD39-L3 (NTPDase3, ENTPD3) (Homo sapiens, UniProt O75355); assay: ELISA titration on CD39-L3; assay type: binding
T3 sequence (O75355 1-529): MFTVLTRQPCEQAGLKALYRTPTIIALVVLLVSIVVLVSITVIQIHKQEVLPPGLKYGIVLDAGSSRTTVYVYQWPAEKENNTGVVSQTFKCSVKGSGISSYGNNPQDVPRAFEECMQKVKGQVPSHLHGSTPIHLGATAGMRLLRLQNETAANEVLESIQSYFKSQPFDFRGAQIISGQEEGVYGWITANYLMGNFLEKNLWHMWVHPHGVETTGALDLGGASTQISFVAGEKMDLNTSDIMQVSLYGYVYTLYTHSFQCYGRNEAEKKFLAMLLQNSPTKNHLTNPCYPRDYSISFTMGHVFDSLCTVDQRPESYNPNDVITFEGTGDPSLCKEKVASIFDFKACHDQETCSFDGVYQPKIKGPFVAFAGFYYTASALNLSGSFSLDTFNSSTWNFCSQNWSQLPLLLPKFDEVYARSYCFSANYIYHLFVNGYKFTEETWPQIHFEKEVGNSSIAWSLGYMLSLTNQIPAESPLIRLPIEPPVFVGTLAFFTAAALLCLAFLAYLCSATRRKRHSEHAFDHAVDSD
Protocol: as §1

[3] = molecular target: T4, human CD39 expressing CHO cells (CHO-huCD39) (Homo sapiens, UniProt P49961); assay: Inhibition of the enzymatic activity of cellular CD39 in CHO-huCD39; assay type: cell-based; settings: qualitative
T4 construct: expressed in transfected cells; host or cells: CHO
T4 sequence (P49961 1-510): T1 sequence (P49961 1-510)
Protocol: The inhibition of the CD39 enzymatic activity in CD39-expressing cells by antibodies was evaluated using Cell Titer GIo™ (Promega, reference G7571) that allows assessment of ATP hydrolysis through use of a reagent that generates a luminescent signal proportional to the amount of ATP present. The assay was thus designed to permit assessment of the inhibition of ATP hydrolyzed by CD39 in the cell culture supernatant. Briefly, 5×10^4 Ramos human lymphoma cells, 5×10^3 human CD39−, cynomolgus CD39—and mouse CD39− expressing CHO cells, were incubated 1 hour at 37° C. with anti-CD39 antibodies from 30 μg/ml to 5×10^−4 μg/ml. Cells were then incubated with 20 μM ATP for 1 additional hour at 37° C. Plates were centrifuged for 2 min at 400 g and 50 μl cell supernatant are transferred in a luminescence microplate (white wells). 50 μl CellTiter-Glo™ Reagent (CTG) was added to the supernatant and emitted light was quantified after a 5 min incubation in the dark using a Enspire™ luminometer. Anti-CD39 antibody efficacy was determined by comparing emitted light in presence of antibody with ATP alone (maximal light emission) and ATP together with cells (minimal light emission).

## I-394: anti-CD39 antibody, VH SEQ ID NO: 6, VL SEQ ID NO: 7, human IgG1 Fc with L234A/L235E/G237A/A330S/P331S
CD39
  binding to CD39 in ELISA: bound to the CD39
[1]
  binding to cells expressing murine CD39 (CHO-moCD39): but not to cells expressing murine CD39
[2]
  binding to CD39-L3 in ELISA: not to any of the isoforms CD39-L1, -L2, -L3 or -L4
[3]
  blocking CD39 enzymatic activity in CHO-huCD39: blocks CD39 enzymatic activity
